Experiment [1] deals with T1, human EphA3 extracellular region-SEAP-His protein (human, UniProt P29320 21-541).
T1 construct: extracellular domain; also called hEphA3-SEAP-His
T1 sequence (looked up): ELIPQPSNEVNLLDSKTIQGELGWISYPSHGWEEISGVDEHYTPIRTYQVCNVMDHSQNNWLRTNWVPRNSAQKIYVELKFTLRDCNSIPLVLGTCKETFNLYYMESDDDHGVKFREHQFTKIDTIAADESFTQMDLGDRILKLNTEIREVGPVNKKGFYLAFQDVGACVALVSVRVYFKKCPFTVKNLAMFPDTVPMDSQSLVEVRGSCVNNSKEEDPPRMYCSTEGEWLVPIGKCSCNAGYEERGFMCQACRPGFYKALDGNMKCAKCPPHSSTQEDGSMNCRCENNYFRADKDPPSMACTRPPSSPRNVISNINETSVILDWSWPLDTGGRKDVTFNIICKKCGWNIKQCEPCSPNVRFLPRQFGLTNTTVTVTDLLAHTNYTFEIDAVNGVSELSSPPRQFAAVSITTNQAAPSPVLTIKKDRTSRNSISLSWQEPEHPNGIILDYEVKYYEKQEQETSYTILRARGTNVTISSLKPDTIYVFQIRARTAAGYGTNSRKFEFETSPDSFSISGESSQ
Nature of the experiment: ELISA. A general note: ELISA stands for enzyme-linked immunosorbent assay.

The target in experiment [2] is T2, human EphB4 extracellular region-SEAP-His protein (human, UniProt P54760 16-539).
T2 construct: extracellular domain; also called hEphB4-SEAP-His
T2 sequence (looked up): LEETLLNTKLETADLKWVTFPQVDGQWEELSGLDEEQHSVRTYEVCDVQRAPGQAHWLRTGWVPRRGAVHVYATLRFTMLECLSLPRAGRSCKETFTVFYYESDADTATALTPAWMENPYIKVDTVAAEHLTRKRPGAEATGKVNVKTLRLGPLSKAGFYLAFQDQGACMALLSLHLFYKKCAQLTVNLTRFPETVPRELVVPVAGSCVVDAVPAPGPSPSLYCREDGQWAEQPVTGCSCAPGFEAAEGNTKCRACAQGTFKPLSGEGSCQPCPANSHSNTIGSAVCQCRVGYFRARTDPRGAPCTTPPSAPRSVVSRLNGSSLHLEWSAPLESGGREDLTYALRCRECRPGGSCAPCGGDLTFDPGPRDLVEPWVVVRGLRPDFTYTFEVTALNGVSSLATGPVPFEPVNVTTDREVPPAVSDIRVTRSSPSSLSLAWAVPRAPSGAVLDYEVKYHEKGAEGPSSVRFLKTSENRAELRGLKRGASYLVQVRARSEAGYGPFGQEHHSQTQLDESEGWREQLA
Kind of experiment: ELISA.

Consider seven molecules from patent US20190077860A1 (EISAI R AND D MANAGEMENT, published 2019).

B1: humanized antibody No. 153 (antibody, human IgG2)
heavy: QVQLVQSGSELKKPGASVKVSCKASGYTFTDYSMHWVRQAPGQGLKWMGWINTETGEPTYAQGFTGRFVFSLDTSVSTAYLQISSLKAEDTAVYYCARIPLYYYGSRYWYFDVWGQGTTVTVSSASTKGPSVFPLAPSSRSTSESTAALGCLVKDYFPEPVTVSWNSGALTSGVHTFPAVLQSSGLYSLSSVVTVPSSNFGTQTYTCNVDHKPSNTKVDKTVERKSCVECPPCPAPPAAAPSVFLFPPKPKDTLMISRTPEVTCVVVDVSHEDPEVQFNWYVDGVEVHNAKTKPREEQFNSTFRVVSVLTVVHQDWLNGKEYKCKVSNKGLPAPIEKTISKTKGQPREPQVYTLPPSREEMTKNQVSLTCLVKGFYPSDIAVEWESNGQPENNYKTTPPMLDSDGSFFLYSKLTVDKSRWQQGNVFSCSVMHEALHNHYTQKSLSLSPG
light: DIQMTQSPSSLSASVGDRVTITCRASENIYRNLAWYQQKPGKAPKLLLYAATNLADGVPSRFSGSGSGTDYTLTISSLQSEDFATYYCQHFWGTPWTFGQGTKVEIKRTVAAPSVFIFPPSDEQLKSGTASVVCLLNNFYPREAKVQWKVDNALQSGNSQESVTEQDSKDSTYSLSSTLTLSKADYEKHKVYACEVTHQGLSSPVTKSFNRGEC
notes: human Ig kappa; also called L1-5/HA2
Regarding B1, the figures for the “A450 as % of hEphA4-SEAP-His” value in experiment [1] and in experiment [2] were 6.1% and 6%, respectively.

B2: humanized antibody No. 154 (antibody, human IgG2)
heavy: QVQLVQSGSELKKPGASVKVSCKASGYTFTDYSMHWVRQAPGQGLEWMGWINTETGEPTYADDFKGRFVFSLDTSVSTAYLQISSLKAEDTAVYYCARIPLYYYGSRYWYFDVWGQGTTVTVSSASTKGPSVFPLAPSSRSTSESTAALGCLVKDYFPEPVTVSWNSGALTSGVHTFPAVLQSSGLYSLSSVVTVPSSNFGTQTYTCNVDHKPSNTKVDKTVERKSCVECPPCPAPPAAAPSVFLFPPKPKDTLMISRTPEVTCVVVDVSHEDPEVQFNWYVDGVEVHNAKTKPREEQFNSTFRVVSVLTVVHQDWLNGKEYKCKVSNKGLPAPIEKTISKTKGQPREPQVYTLPPSREEMTKNQVSLTCLVKGFYPSDIAVEWESNGQPENNYKTTPPMLDSDGSFFLYSKLTVDKSRWQQGNVFSCSVMHEALHNHYTQKSLSLSPG
light: DIQMTQSPSSLSASVGDRVTITCRASENIYRNLAWYQQKPGKAPKLLLYAATNLADGVPSRFSGSGSGTDYTLTISSLQSEDFATYYCQHFWGTPWTFGQGTKVEIKRTVAAPSVFIFPPSDEQLKSGTASVVCLLNNFYPREAKVQWKVDNALQSGNSQESVTEQDSKDSTYSLSSTLTLSKADYEKHKVYACEVTHQGLSSPVTKSFNRGEC
notes: human Ig kappa; also called L1-5/HK1
With B2, the “A450 as % of hEphA4-SEAP-His” value in experiment [1] stood at 6.2%; in experiment [2], 6.4%.

B3: humanized antibody No. 158 (antibody, human IgG2)
heavy: QVQLVQSGSELKKPGASVKVSCKASGYTFTDYSMHWVRQAPGQGLKWMGWINTETGEPTYAQGFTGRFVFSLDTSVSTAYLQISSLKAEDTAVYYCARIPLYYYGSRYWYFDVWGQGTTVTVSSASTKGPSVFPLAPSSRSTSESTAALGCLVKDYFPEPVTVSWNSGALTSGVHTFPAVLQSSGLYSLSSVVTVPSSNFGTQTYTCNVDHKPSNTKVDKTVERKSCVECPPCPAPPAAAPSVFLFPPKPKDTLMISRTPEVTCVVVDVSHEDPEVQFNWYVDGVEVHNAKTKPREEQFNSTFRVVSVLTVVHQDWLNGKEYKCKVSNKGLPAPIEKTISKTKGQPREPQVYTLPPSREEMTKNQVSLTCLVKGFYPSDIAVEWESNGQPENNYKTTPPMLDSDGSFFLYSKLTVDKSRWQQGNVFSCSVMHEALHNHYTQKSLSLSPG
light: DIQMTQSPSSLSASVGDRVTITCRASENIYRNLAWYQQKPGKAPQLLLYAATNLADGVPSRFSGSGSGTDYTLTISSLQPEDFATYYCQHFWGTPWTFGQGTKVEIKRTVAAPSVFIFPPSDEQLKSGTASVVCLLNNFYPREAKVQWKVDNALQSGNSQESVTEQDSKDSTYSLSSTLTLSKADYEKHKVYACEVTHQGLSSPVTKSFNRGEC
notes: human Ig kappa; also called L1-6/HA2
For B3, the “A450 as % of hEphA4-SEAP-His” value in experiment [1] and in experiment [2] was 6.5% throughout.

B4: humanized antibody No. 156 (antibody, human IgG2)
heavy: QIQLVQSGSELKKPGASVKVSCKASGYTFTDYSMHWVRQAPGQGLKWMGWINTETGEPTYAQGFTGRFVFSLDTSVSTAYLQISSLKAEDTAVYYCARIPLYYYGSRYWYFDVWGQGTTVTVSSASTKGPSVFPLAPSSRSTSESTAALGCLVKDYFPEPVTVSWNSGALTSGVHTFPAVLQSSGLYSLSSVVTVPSSNFGTQTYTCNVDHKPSNTKVDKTVERKSCVECPPCPAPPAAAPSVFLFPPKPKDTLMISRTPEVTCVVVDVSHEDPEVQFNWYVDGVEVHNAKTKPREEQFNSTFRVVSVLTVVHQDWLNGKEYKCKVSNKGLPAPIEKTISKTKGQPREPQVYTLPPSREEMTKNQVSLTCLVKGFYPSDIAVEWESNGQPENNYKTTPPMLDSDGSFFLYSKLTVDKSRWQQGNVFSCSVMHEALHNHYTQKSLSLSPG
light: DIQMTQSPSSLSASVGDRVTITCRASENIYRNLAWYQQKPGKAPQLLLYAATNLADGVPSRFSGSGSGTDYTLTISSLQPEDFATYYCQHFWGTPWTFGQGTKVEIKRTVAAPSVFIFPPSDEQLKSGTASVVCLLNNFYPREAKVQWKVDNALQSGNSQESVTEQDSKDSTYSLSSTLTLSKADYEKHKVYACEVTHQGLSSPVTKSFNRGEC
notes: human Ig kappa; also called L1-6/HA4
Regarding B4, the “A450 as % of hEphA4-SEAP-His” value was 5.7% in experiment [1] and 5.6% in experiment [2].

B5: humanized antibody No. 159 (antibody, human IgG2)
heavy: QVQLVQSGSELKKPGASVKVSCKASGYTFTDYSMHWVRQAPGQGLKWMGWINTETGEPTYADDFKGRFVFSLDTSVSTAYLQISSLKAEDTAVYYCARIPLYYYGSRYWYFDVWGQGTTVTVSSASTKGPSVFPLAPSSRSTSESTAALGCLVKDYFPEPVTVSWNSGALTSGVHTFPAVLQSSGLYSLSSVVTVPSSNFGTQTYTCNVDHKPSNTKVDKTVERKSCVECPPCPAPPAAAPSVFLFPPKPKDTLMISRTPEVTCVVVDVSHEDPEVQFNWYVDGVEVHNAKTKPREEQFNSTFRVVSVLTVVHQDWLNGKEYKCKVSNKGLPAPIEKTISKTKGQPREPQVYTLPPSREEMTKNQVSLTCLVKGFYPSDIAVEWESNGQPENNYKTTPPMLDSDGSFFLYSKLTVDKSRWQQGNVFSCSVMHEALHNHYTQKSLSLSPG
light: DIQMTQSPSSLSASVGDRVTITCRASENIYRNLAWYQQKPGKAPQLLLYAATNLADGVPSRFSGSGSGTDYTLTISSLQPEDFATYYCQHFWGTPWTFGQGTKVEIKRTVAAPSVFIFPPSDEQLKSGTASVVCLLNNFYPREAKVQWKVDNALQSGNSQESVTEQDSKDSTYSLSSTLTLSKADYEKHKVYACEVTHQGLSSPVTKSFNRGEC
notes: human Ig kappa; also called L1-6/HK2
In the case of B5, the “A450 as % of hEphA4-SEAP-His” value in experiment [1] and in experiment [2] was 5.4% each time.

B6: humanized antibody No. 155 (antibody, human IgG2)
heavy: QIQLVQSGSELKKPGASVKVSCKASGYTFTDYSMHWVRQAPGQGLKWMGWINTETGEPTYADDFKGRFVFSLDTSVSTAYLQISSLKAEDTAVYYCARIPLYYYGSRYWYFDVWGQGTTVTVSSASTKGPSVFPLAPSSRSTSESTAALGCLVKDYFPEPVTVSWNSGALTSGVHTFPAVLQSSGLYSLSSVVTVPSSNFGTQTYTCNVDHKPSNTKVDKTVERKSCVECPPCPAPPAAAPSVFLFPPKPKDTLMISRTPEVTCVVVDVSHEDPEVQFNWYVDGVEVHNAKTKPREEQFNSTFRVVSVLTVVHQDWLNGKEYKCKVSNKGLPAPIEKTISKTKGQPREPQVYTLPPSREEMTKNQVSLTCLVKGFYPSDIAVEWESNGQPENNYKTTPPMLDSDGSFFLYSKLTVDKSRWQQGNVFSCSVMHEALHNHYTQKSLSLSPG
light: DIQMTQSPSSLSASVGDRVTITCRASENIYRNLAWYQQKPGKAPKLLLYAATNLADGVPSRFSGSGSGTDYTLTISSLQSEDFATYYCQHFWGTPWTFGQGTKVEIKRTVAAPSVFIFPPSDEQLKSGTASVVCLLNNFYPREAKVQWKVDNALQSGNSQESVTEQDSKDSTYSLSSTLTLSKADYEKHKVYACEVTHQGLSSPVTKSFNRGEC
notes: human Ig kappa; also called L1-5/HK4
On to B6, for which the “A450 as % of hEphA4-SEAP-His” value was determined as 5.6% in experiment [1] and 5.7% in experiment [2].

B7: humanized antibody No. 157 (antibody, human IgG2)
heavy: QVQLVQSGSELKKPGASVKVSCKASGYTFTDYSMHWVRQAPGQGLEWMGWINTETGEPTYAQGFTGRFVFSLDTSVSTAYLQISSLKAEDTAVYYCARIPLYYYGSRYWYFDVWGQGTTVTVSSASTKGPSVFPLAPSSRSTSESTAALGCLVKDYFPEPVTVSWNSGALTSGVHTFPAVLQSSGLYSLSSVVTVPSSNFGTQTYTCNVDHKPSNTKVDKTVERKSCVECPPCPAPPAAAPSVFLFPPKPKDTLMISRTPEVTCVVVDVSHEDPEVQFNWYVDGVEVHNAKTKPREEQFNSTFRVVSVLTVVHQDWLNGKEYKCKVSNKGLPAPIEKTISKTKGQPREPQVYTLPPSREEMTKNQVSLTCLVKGFYPSDIAVEWESNGQPENNYKTTPPMLDSDGSFFLYSKLTVDKSRWQQGNVFSCSVMHEALHNHYTQKSLSLSPG
light: DIQMTQSPSSLSASVGDRVTITCRASENIYRNLAWYQQKPGKAPQLLLYAATNLADGVPSRFSGSGSGTDYTLTISSLQPEDFATYYCQHFWGTPWTFGQGTKVEIKRTVAAPSVFIFPPSDEQLKSGTASVVCLLNNFYPREAKVQWKVDNALQSGNSQESVTEQDSKDSTYSLSSTLTLSKADYEKHKVYACEVTHQGLSSPVTKSFNRGEC
notes: human Ig kappa; also called L1-6/HA1
As for B7, the results for the “A450 as % of hEphA4-SEAP-His” value in experiment [1] and in experiment [2] were 6.4% and 6.5%, respectively.
